Target: T1, recombinant human LRP6-Fc chimera (human, UniProt O75581 20-1370)
T1 construct: extracellular domain; also called human LRP6 chimera; not shown: Fc part of the chimera
T1 sequence (looked up): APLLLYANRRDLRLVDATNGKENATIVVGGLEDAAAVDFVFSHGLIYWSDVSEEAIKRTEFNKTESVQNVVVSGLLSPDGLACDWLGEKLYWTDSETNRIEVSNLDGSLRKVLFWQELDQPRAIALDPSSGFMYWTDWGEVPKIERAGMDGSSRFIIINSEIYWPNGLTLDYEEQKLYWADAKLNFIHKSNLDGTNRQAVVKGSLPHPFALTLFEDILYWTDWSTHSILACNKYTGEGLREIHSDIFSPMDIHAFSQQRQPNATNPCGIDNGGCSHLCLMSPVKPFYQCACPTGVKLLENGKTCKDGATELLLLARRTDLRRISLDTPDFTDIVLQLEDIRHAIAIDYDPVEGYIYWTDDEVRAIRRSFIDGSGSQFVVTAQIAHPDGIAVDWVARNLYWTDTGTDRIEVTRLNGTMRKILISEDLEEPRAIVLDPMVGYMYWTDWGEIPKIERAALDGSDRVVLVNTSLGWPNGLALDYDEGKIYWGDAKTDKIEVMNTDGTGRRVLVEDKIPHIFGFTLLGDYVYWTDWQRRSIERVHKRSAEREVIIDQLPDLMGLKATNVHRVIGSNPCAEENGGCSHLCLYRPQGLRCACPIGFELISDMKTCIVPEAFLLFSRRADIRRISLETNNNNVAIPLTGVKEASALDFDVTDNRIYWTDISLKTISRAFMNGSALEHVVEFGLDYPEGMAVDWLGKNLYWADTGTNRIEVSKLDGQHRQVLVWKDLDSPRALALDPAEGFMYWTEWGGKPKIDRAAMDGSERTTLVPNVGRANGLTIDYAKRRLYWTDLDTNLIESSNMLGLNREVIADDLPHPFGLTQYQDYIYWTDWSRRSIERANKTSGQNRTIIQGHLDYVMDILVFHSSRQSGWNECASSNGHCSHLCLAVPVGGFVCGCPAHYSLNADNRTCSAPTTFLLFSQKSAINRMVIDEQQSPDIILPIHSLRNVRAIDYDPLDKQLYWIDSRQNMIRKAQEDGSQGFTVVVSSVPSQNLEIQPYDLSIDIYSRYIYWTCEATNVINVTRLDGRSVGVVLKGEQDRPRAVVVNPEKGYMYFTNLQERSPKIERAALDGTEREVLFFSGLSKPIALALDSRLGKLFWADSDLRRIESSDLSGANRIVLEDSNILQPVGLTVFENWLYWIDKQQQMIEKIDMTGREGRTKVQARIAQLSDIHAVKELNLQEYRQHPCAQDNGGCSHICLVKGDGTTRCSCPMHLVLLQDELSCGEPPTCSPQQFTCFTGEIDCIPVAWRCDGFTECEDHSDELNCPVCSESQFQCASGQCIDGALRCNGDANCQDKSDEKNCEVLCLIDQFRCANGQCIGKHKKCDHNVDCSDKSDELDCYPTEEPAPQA
Test: single-point ELISA, IgG1 on coated antigen
Procedure: FIGS. 1a and 1b show LRP six antibodies. (A) The amino acid sequences of the complementarity determining regions (CDR) of the heavy (H) and the light (L) chains are presented. The antibodies were grouped into unique epitopes as determined by competitive ELISAs. (B) Single-point ELISAs were performed on 96-well Maxisorb immune plates coated with the […] of mouse LRP5, mouse LRP6 and human LRP6 chimeras. The plates were incubated with the purified Fab or IgG1 at the concentrations indicated followed by incubation with horseradish peroxidase (HRP)-conjugated anti-kappa antibody. The wells were washed eight times followed by incubation with 3,3′,5,5′-tetramethylbenzidine/H₂O₂ peroxidase (TMB) substrate for 5-10 min. The reaction was stopped by adding one M H₃PO₄ and the absorbance was measured spectrometrically at 450 nm in a microtiter plate reader.
The full length IgG1s were purified and a single-point ELISA was done to determine the specificity of the antibodies. […] A multipoint competitive ELISA was used to determine the relative affinities of the antibodies to the recombinant antigen.

binding result: no binding
B1: LRP6-E3 IgG1 antibody (antibody, V domains shown)
VH: EVQLVESGGGLVQPGGSLRLSCAASGFNLYYYSMHWVRQAPGKGLEWVASIYSSYGYTYYADSVKGRFTISADTSKNTAYLQMNSLRAEDTAVYYCARYAGYYYYPWAYYGWPFSGLDYWGQGTLVTVSS
VL: DIQMTQSPSSLSASVGDRVTITCRASQSVSSAVAWYQQKPGKAPKLLIYSASSLYSGVPSRFSGSRSGTDFTLTISSLQPEDFATYYCQQAGSAPYHLITFGQGTKVEIKR
notes: Tested as purified full length IgG1
